Results reported in publication PMC10619491, “SET7/9-mediated methylation affects oncogenic functions of histone demethylase JMJD2A” (JCI Insight, 2023).
Ends that are not written are not given here.

T1: GST–ETV1(249–477) fusion protein (UniProt P50549 249-477)
T1 construct: ETV1, C-terminal half, residues 249-477; In the MST it was labelled through an anti-GST mouse mAb coupled to Alexa Fluor 647; also called fusion between GST and the C-terminal half of ETV1 (aa 249–477); source: E. coli, purified
T1 sequence (looked up): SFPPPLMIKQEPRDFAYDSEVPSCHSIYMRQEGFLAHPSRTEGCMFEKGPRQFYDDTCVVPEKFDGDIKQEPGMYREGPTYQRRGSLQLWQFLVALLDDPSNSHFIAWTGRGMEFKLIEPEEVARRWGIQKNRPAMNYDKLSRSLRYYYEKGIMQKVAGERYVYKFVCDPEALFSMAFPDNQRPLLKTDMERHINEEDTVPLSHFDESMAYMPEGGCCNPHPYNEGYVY


Biological target: T1, GST–ETV1(249–477) fusion protein
Assay: MST; Monolith NT.115; 15 serial dilutions of peptide (starting concentration 50 μM) against 300 nM GST–ETV1(249–477) with 20 nM anti-GST mouse mAb coupled to Alexa Fluor 647; PBS with 0.05% Tween-20
Details: both partners purified

Binder	Kd
VNPASVGGRLVFSGSKKKSSSSLGSGSSRDSIS-NH2 (peptide, UniProt O75164 490-522, looked up, JMJD2A/KDM4A, human, residues 490-522; also called JMJD2A aa 490–522 peptide; source: synthetic peptide (GenScript)) [unmethylated (WT) peptide spanning JMJD2A aa 490–522]	25.4 µM
VNPASVGGRLVFSGSK(Me)K(Me)K(Me)SSSSLGSGSSRDSIS-NH2 (peptide, UniProt O75164 490-522, looked up, N-terminus assumed; SMILES CC[C@H](C)[C@H](NC(=O)[C@H](CO)NC(=O)[C@H](CC(=O)O)NC(=O)[C@H](CCCNC(=N)N)NC(=O)[C@H](CO)NC(=O)[C@H](CO)NC(=O)CNC(=O)[C@H](CO)NC(=O)CNC(=O)[C@H](CC(C)C)NC(=O)[C@H](CO)NC(=O)[C@H](CO)NC(=O)[C@H](CO)NC(=O)[C@H](CO)NC(=O)[C@H](CCCCNC)NC(=O)[C@H](CCCCNC)NC(=O)[C@H](CCCCNC)NC(=O)[C@H](CO)NC(=O)CNC(=O)[C@H](CO)NC(=O)[C@H](Cc1ccccc1)NC(=O)[C@@H](NC(=O)[C@H](CC(C)C)NC(=O)[C@H](CCCNC(=N)N)NC(=O)CNC(=O)CNC(=O)[C@@H](NC(=O)[C@H](CO)NC(=O)[C@H](C)NC(=O)[C@@H]1CCCN1C(=O)[C@H](CC(N)=O)NC(=O)[C@@H](N)C(C)C)C(C)C)C(C)C)C(=O)N[C@@H](CO)C(N)=O, JMJD2A/KDM4A, human, residues 490-522; source: synthetic peptide (GenScript)) [triple methylated (on K505, K506, and K507; 3xme) peptide spanning JMJD2A aa 490–522]	8.7 µM
